Positions count from the first letter of the chain named. Like-named read-outs stand apart in the source and are kept apart here. Each block holds one binder with its values, some of them ahead of it.
How the values were obtained:
[1] = target: T1, recombinant Fc chimeric conjugate of human EGFR (human, UniProt P00533 25-645); assay: ELISA, coated antigen
T1 construct: extracellular domain; Coated on the ELISA plate; also called HER1; Her1
Description: (§1) Microtiter plates were coated with a) c-Met, IGF-1R, EGFR, HER2, and/or HER3 protein or b) EGFR, HER2, and/or HER3 (recombinant Fc chimeric conjugates of human c-Met, IGF-1R, EGFR, HER2, HER3 or IL12 Rβ1). After a blocking process, specific antibodies from B-cell supernatants bind to the targets and are then detected by a POD-labeled anti-rabbit IgG antibody. The IL12R binding was used as a counter-screen.
(§2) 12.5 μL 0.5 μg/mL protein in PBS was transferred to a microtiter plate incubated and washed 3× with Wash Buffer. 90 μL Block Buffer was added to each well, incubated and washed. 12.5 μL Standard Antibody (Anti-EGF-Receptor; HER2 Rabbit anti-Human Monoclonal (extracellular domain) (SP3) Antibody; HER3 (N-terminal) antibody; start concentration 2 μg/ml; IL-12Rbeta1 antibody start concentration 500 ng/ml) in 1:2 dilutions or sample diluted in ELISA buffer was added, incubated and washed. 12.5 μl 1:5000 POD-Antibody (Anti-rabbit IgG, peroxidase-linked species-specific Fab2 fragment (from donkey) (ECL); assay dilution: 1:5000) in Elisa Buffer was added, incubated and washed. 15 μl TMB was added and 15 μl HCl was added after sufficient development. Absorbance (Optical Density O.D.) was read at 450 nm/620 nm.

[2] = target: T1, recombinant Fc chimeric conjugate of …; assay: ELISA, coated antigen; supernatant IgG 81.8 ng/ml
Description: as §1, §2

[3] = target: T2, recombinant Fc chimeric conjugate of human HER2 (human, UniProt P04626 23-652); assay: ELISA, coated antigen; supernatant IgG 81.8 ng/ml
T2 construct: extracellular domain; Coated on the ELISA plate
Description: as §1, §2

[4] = target: T3, recombinant Fc chimeric conjugate of human HER3 (human, UniProt P21860 20-643); assay: ELISA, coated antigen; supernatant IgG 81.8 ng/ml
T3 construct: extracellular domain; Coated on the ELISA plate
T3 sequence (P21860 20-643, change not shown): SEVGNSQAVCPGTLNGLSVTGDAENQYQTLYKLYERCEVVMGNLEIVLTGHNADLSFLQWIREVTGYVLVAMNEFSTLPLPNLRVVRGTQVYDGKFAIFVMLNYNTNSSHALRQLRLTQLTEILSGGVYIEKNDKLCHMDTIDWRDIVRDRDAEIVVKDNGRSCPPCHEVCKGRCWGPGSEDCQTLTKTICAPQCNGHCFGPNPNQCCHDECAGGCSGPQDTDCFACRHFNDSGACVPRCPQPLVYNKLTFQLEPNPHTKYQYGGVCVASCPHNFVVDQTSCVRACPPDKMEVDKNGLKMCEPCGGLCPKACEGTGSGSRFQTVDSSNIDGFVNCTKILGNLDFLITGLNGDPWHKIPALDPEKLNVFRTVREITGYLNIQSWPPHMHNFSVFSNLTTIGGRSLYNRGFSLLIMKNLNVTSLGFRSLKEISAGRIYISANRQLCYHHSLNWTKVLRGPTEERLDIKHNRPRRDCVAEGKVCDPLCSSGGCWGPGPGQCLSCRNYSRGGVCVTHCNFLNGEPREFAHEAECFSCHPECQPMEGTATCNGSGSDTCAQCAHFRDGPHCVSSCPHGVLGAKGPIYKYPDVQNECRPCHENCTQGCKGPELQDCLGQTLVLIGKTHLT
Description: as §1, §2

[5] = target: T1, recombinant Fc chimeric conjugate of …; assay: ELISA, coated antigen; supernatant IgG 719.9 ng/ml
Description: as §1, §2

[6] = target: T2, recombinant Fc chimeric conjugate of …; assay: ELISA, coated antigen; supernatant IgG 719.9 ng/ml
Description: as §1, §2

[7] = target: T3, recombinant Fc chimeric conjugate of …; assay: ELISA, coated antigen; supernatant IgG 719.9 ng/ml
Description: as §1, §2

[8] = target: T1, recombinant Fc chimeric conjugate of …; assay: ELISA, coated antigen; supernatant IgG 377.5 ng/ml
Description: as §1, §2

[9] = target: T2, recombinant Fc chimeric conjugate of …; assay: ELISA, coated antigen; supernatant IgG 377.5 ng/ml
Description: as §1, §2

[10] = target: T3, recombinant Fc chimeric conjugate of …; assay: ELISA, coated antigen; supernatant IgG 377.5 ng/ml
Description: as §1, §2

[11] = target: T1, recombinant Fc chimeric conjugate of …; assay: ELISA, coated antigen; supernatant IgG 1148.9 ng/ml
Description: as §1, §2

[12] = target: T2, recombinant Fc chimeric conjugate of …; assay: as above
Description: as §1, §2

[13] = target: T3, recombinant Fc chimeric conjugate of …; assay: as above
Description: as §1, §2

[14] = target: T1, recombinant Fc chimeric conjugate of …; assay: ELISA, coated antigen; supernatant IgG 425.7 ng/ml
Description: as §1, §2

[15] = target: T2, recombinant Fc chimeric conjugate of …; assay: ELISA, coated antigen; supernatant IgG 425.7 ng/ml
Description: as §1, §2

[16] = target: T3, recombinant Fc chimeric conjugate of …; assay: ELISA, coated antigen; supernatant IgG 425.7 ng/ml
Description: as §1, §2

[17] = target: T2, recombinant Fc chimeric conjugate of …; assay: ELISA, coated antigen
Description: as §1, §2

[18] = target: T4, recombinant Fc chimeric conjugate of human IGF-1R (human, UniProt P08069 31-935); assay: ELISA, coated antigen
T4 construct: extracellular domain; Coated on the ELISA plate
T4 sequence (P08069 31-935, change not shown): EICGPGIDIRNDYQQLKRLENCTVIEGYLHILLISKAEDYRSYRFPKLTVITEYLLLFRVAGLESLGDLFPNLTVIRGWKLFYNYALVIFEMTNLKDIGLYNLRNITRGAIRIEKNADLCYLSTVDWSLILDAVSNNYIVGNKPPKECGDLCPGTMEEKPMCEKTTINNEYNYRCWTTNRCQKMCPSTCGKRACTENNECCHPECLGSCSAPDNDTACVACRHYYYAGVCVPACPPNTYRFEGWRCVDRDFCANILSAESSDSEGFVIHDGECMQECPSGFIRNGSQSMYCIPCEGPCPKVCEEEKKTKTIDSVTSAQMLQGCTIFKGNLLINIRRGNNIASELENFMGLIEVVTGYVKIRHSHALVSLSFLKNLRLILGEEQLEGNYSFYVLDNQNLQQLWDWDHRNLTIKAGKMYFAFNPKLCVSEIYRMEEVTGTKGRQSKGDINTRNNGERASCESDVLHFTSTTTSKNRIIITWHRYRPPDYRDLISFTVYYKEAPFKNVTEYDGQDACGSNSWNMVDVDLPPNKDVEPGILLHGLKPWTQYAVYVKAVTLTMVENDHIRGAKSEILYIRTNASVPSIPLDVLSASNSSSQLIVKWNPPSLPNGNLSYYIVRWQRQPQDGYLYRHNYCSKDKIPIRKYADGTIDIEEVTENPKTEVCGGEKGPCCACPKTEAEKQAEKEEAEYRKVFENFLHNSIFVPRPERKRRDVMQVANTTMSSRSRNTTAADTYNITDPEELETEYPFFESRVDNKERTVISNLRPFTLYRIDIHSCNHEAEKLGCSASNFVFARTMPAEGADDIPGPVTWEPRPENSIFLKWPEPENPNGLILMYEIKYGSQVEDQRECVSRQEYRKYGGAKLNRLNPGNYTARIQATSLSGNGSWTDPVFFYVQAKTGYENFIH
Description: as §1, §2

[19] = target: T3, recombinant Fc chimeric conjugate of …; assay: ELISA, coated antigen
Description: as §1, §2

[20] = target: T1, recombinant Fc chimeric conjugate of …; assay: ELISA, coated antigen; supernatant IgG 1500.0 ng/ml
Description: as §1, §2

[21] = target: T2, recombinant Fc chimeric conjugate of …; assay: as above
Description: as §1, §2

[22] = target: T1, recombinant Fc chimeric conjugate of …; assay: ELISA, coated antigen; remark: listed apart in the source
Description: as §1, §2

binding result [19]: no binding (tested: OD 0.1 or lower) | Optical density (OD) [20]: 1.5 OD | Optical density (OD) [21]: 2.5 OD
B8: Antibody 77 (antibody, V domains shown)
VH: QSVEESGGRLVTPGTPLTLTCTISGFSLNNYWMSWVRQAPGKGLEWIGIISSSDTTWYASWAKGRFTISRTSTTVDLKMTSLTTEDTATYFCARDRGDVGYSDLDLWGPGTLVTVSS
VL: AYDMTQTPASVEVAVGGTVTIKCQASQSISSYLSWYQQKPGQPPKLLIYKASTLASGVSSRFSGSGSGTEFTLTISGVQCDDAATYYCQQGYSESNLDNAFGGGTEVVVK
notes: rabbit IgG in B-cell supernatant

binding result [1]: no binding (tested: OD 0.1 or lower)
B9: Antibody B02 (antibody, V domains shown)
VH: QSVEESGGRLVTPGTPLTLTCTVSGFSLSSYDMIWVRQAPGKGLEYIGIINTGGSAHYARWANGRFTISKTSTKVDLKITSPTIEDTATYFCARRDFGVSSKLWGQGTLVTVSS
VL: DIVMTQTPASVSAAVGGTVTINCQASEDIGNWLAWYQQKPGQRPKLLIYAASDLASGVPSRFKGSGSGTDFTLTISGLECADAATYYCQGGFFGSGFVYAFGGGTEVVVK
notes: as for B8

binding result [22]: no binding (tested: OD 0.1 or lower)
B10: Antibody 47 (antibody, V domains shown)
VH: QSVEESGGRLVTPGTPLTLTCTVSGFSLSSYAMNWVRQAPGKGLEWIGIIDSSGITYYATWAKGRFTISKTSTTVDLKMTSLTTEDTATYFCARGVTLWGQGTLVTVSS
VL: AQVLTQTASPVSAAVGSTVTINCQASQSVYNNNRLSWFQQKPGQPPKLLISGASTLASGVSSRFSGSGSGTQFTLTISDVQCDDAATYYCLGSYDCSSADCGAFGGGTEVVVK
notes: as for B8

binding result [1]: no binding (tested: OD 0.1 or lower)
B11: Antibody A05 (antibody, V domains shown)
VH: QSLEESGGRLVTPGGSLTLTCTVSGIDLSSYAVAWVRQAPGKGLQYIGFFDKSGNVYYASWAKGRFTISRTSSTTVDLKMTSLTTEDTATYFCGRGSGGSDLWGQGTLVTVSS
VL: DVVMTQTPASVEAAVGGTVTIKCQASQSISGYLAWFQQKPGQPPKLLIYGASTLASGVPSRFKGSGSGTEFTLTISDLECADAATYYCQSYYTTSATSYGNAFGGGTEVVVK
notes: as for B8

binding result [18]: no binding (tested: OD 0.1 or lower)
B12: Antibody D02 (antibody, V domains shown)
VH: QSLEESGGRLVTPGTPLTLTCTASRFSLSSYGVNWVRQAPGKGLQWIGYSHTDGSAYYTNWAKGRFTISRTSTTVDLKITSPTTADTATYFCWRGGLWGQGTLVTVSS
VL: AQVLTQTPSSVSAAVGGTVTINCQASQSVYKNNYLSWYQQKPGQPPKRLIYTASTLASGVPSRFKGSGSGTEFTLTISDVQCDDAATYYCVGGYDCSSADCNAFGGGTEVVVK
notes: as for B8

binding result [22]: no binding (tested: OD 0.1 or lower)
B13: Antibody 87 (antibody, V domains shown)
VH: QSVEESGGRLVTPGTPLTVTCTVSGFSLSSYVMSWVRQAPGKGLEWIGIIASSGHTYYATWAKGRFTISKTSTTVDLKITSPTTEDTATYFCARYGSDSGWGYYFTLWGPGTLVTVSS
VL: AQVLTQTPSSVSEPVGGTVTINCQASENIYSYLSWYQQKRGQPPKLLIYGASTLASGVPSRFKGSGSGTEYTLTISDLECDDAATYYCQSGYYTNSGDLAFGGGTEVVVK
notes: as for B8

binding result [19]: no binding (tested: OD 0.1 or lower) | Optical density (OD) [21]: 2.7 OD
B14: Antibody 68 (antibody, V domains shown)
VH: QSVEESGGRLVTPGTPLTLTCTVSGFSLSTYSMSWVRQAPGKGLEWIGTIAISGTTYYASWAKGRFTISKSSTTVDLKISSPTTEDTATYFCARYVSDLIGTNLWGPGTLVTVSS
VL: DVVMTQTPASVSEPVGGTVTIKCQASQSIGSNLAWHQQKPGQPPKLLIYAASNLASGVSSRFKGSRSGTEYTLTISAVQCDDAATYYCQYTYYGSSVVIGTFGGGTEVVVK
notes: as for B8

The next lines start with the binder.

B1: Antibody G04 (antibody, V domains shown)
VH: QSLEESGGDLVKPGASLTLTCKASGFTISSSYYMCWVRQAPGKGLEWVACSYDGDGSTYYANWAKGRFTTSKTSSTTVTLQMTSLTAADTATYFCARGSYVSRSYYDKWDLWGQGTLVTVSS
VL: EVVMTQTPASVSEPVGGTVTIKCQASQYISSYLSWYQQKPGQPPKLLIYAASNLASGVPSRFKGSGSGTEFTLTISGVQCDDAATYYCQNNYYISGYGTAFGGGTEVVVK
notes: as for B8
binding result [1]: no binding (tested: OD 0.1 or lower)

B2: Antibody 48 (antibody, V domains shown)
VH: QSLEESGGDLVKPGASLTLTCTASGFDLNSDYWICWVRQAPGKGLEWIACIDTGYGDIYYASWAKGRFTISKTSSTTVTLQMTSLTAADTATYFCAREIIFHFNLWGPGTLVTVSS
VL: DVVMTQTPASVSEPVGGTVTIKCQASQSIRSYLAWYQQKPGQPPKVLIYKASTLASGVSSRFKGSGSGTQFTLTISDLECADAATYYCQGGVELNNYLYNPFGGGTEVVVK
notes: as for B8
Optical density (OD) [2]: 1.2 OD | Optical density (OD) [3]: 1.2 OD | Optical density (OD) [4]: 1.1 OD

B3: Antibody 37 (antibody, V domains shown)
VH: B2 VH with K12Q, G14E, A15G, T22K, F26L, L28F, N29S, D31S, I70M, I99K
VL: B2 VL with R30K, S31N, A34S, I48L, L94V
notes: as for B8
Optical density (OD) [5]: 2.9 OD | Optical density (OD) [6]: 2.7 OD | Optical density (OD) [7]: 2.7 OD

B4: Antibody 49 (antibody, V domains shown)
VH: B2 VH with D31N
VL: B2 VL with R30S, L94V
notes: as for B8
Optical density (OD) [8]: 2.5 OD | Optical density (OD) [9]: 0.4 OD | Optical density (OD) [10]: 0.6 OD

B5: Antibody 25 (antibody, V domains shown)
VH: B2 VH with T20I, S30T, D31N, T53S, S62T, T73A
VL: B2 VL with L94F, P101S
notes: as for B8
Optical density (OD) [11]: 3.3 OD | Optical density (OD) [12]: 2.4 OD | Optical density (OD) [13]: 2.6 OD

B6: Antibody 65 (antibody, V domains shown)
VH: QSVEESGGRLVTPGTPLTLTCTVSGFSLNNYYMTWVRQAPGKGLEWIGVISGSATTYYASWAKGRFTISQTSTTVDLRITSPTTEDTATYFCARSLTADIIDYYNIWGPGTLVTVSL
VL: DVVMTQTPASVSEPVGGTVTIKCQASEDINALLAWYQQKPGQPPKLLIYVASYLQSGVPSRFKGSGSGTEYTLTISGVQCADAATYYCQSAYDSSGYVGAFGGGTEVVVK
notes: as for B8
Optical density (OD) [14]: 2.5 OD | Optical density (OD) [15]: 2.9 OD | Optical density (OD) [16]: 1.9 OD

B7: Antibody D08 (antibody, V domains shown)
VH: QSLEESGGRLVTPGTPLTLTCTVSGFSLGTYWMSWVRQAPGRGLDWIGFIGSSGNGNYASWAKGRFTISRASSTTVDLKMTSLTTEDTATYFCARVKYFYYFDLWGQGTLVTVSS
VL: AQVLTQTTSPVSAAVGGTVTINCQASESVYGKKYLSWYQQKPGQPPKQLIYEASKLASGVPSRFEGSGSGTQFTLTISGVQCDDAATYYCQGEFSCSSADCTAFGGGTEVVVK
notes: as for B8
binding result [17]: no binding (tested: OD 0.1 or lower) | binding result [18]: no binding (tested: OD 0.1 or lower)

Source: patent publication US20150259430A1 (MAB DISCOVERY, published 2015)
